The source of these data is patent publication US20120189633A1 (KOLLTAN PHARMACEUTICALS, published 2012).

In general, EC50 refers to the concentration that produces a half-maximal response.

Test [1] concerns the target full-length, wild-type human KIT receptor expressed on cells (human, UniProt P10721 26-976). The test can be described thus: cell-based or functional assay.
For test [2], the target named is T1, recombinant KIT D4/D5 polypeptide (D4/D5 region of human KIT, V308 to H515, with 5xHis tag) (human, UniProt P10721 26-519).
T1 construct: also called KIT D4/D5 antigen; KIT immunogen
T1 sequence (P10721 other isoform, or with tags, fused parts or gaps): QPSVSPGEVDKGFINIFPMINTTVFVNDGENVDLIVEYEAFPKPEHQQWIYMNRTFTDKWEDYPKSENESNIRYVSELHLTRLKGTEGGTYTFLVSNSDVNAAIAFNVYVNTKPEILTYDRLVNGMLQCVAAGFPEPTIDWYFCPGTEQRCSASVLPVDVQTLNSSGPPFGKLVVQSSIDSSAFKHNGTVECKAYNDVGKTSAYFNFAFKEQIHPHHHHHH
Kind of test: solid phase ELISA, antigen coated on the plate. How it is done: The binding activity of antibodies 37M and 37C obtained from mice immunized with a KIT immunogen containing the D4/D5 region of the human KIT extracellular region was characterized by solid phase ELISA. […] The binding affinity of antibody 37C for an antigen containing the D4/D5 region (see FIG. 2A) of human KIT was also tested by solid phase ELISA. The general protocol used for the solid phase ELISA experiments are described below.
Preparation of antibody sample with serial dilution: Dilution buffer (100 μL) was added to columns 1 and 7 of a 96 well plate, and 50 μL of dilution buffer were added to all the remaining wells. The test antibody (100 μL) was added to the first well containing 100 μL dilution buffer, mixed by pipetting, and 50 μL from the first well were removed and added into the second well and mixed. This dilution step was repeated across the row until the dilution step was repeated for a total of six dilutions. This dilution process was repeated for each sample.
ELISA: The plate with the absorbed antigen was removed from the −80° C. freezer and was allowed to thaw at room temperature. The borate buffer was removed by flicking the plate into the sink and blotting the plate dry. Blocking buffer (200 μL) was added to each well and was allowed to incubate at room temperature for one hour. The blocking buffer was removed, again by flicking the plate into the sink. […]
(In general: In an ELISA, binding on a coated surface is turned into a signal by an enzyme label.)

The target in test [3] is T1, recombinant KIT D4/D5 polypeptide …. The test can be described thus: competition solid phase ELISA on KIT D4/D5 antigen; 37C titrated alone, without competitor. On the procedure: (§1) Competitive binding assays were carried out with antibody 37M or 37C as described below and using solid phase ELISA as described in Example 2 (Section 6.2). In particular, serial dilutions of the reference antibody (either 37M or 37C) were combined with constant concentrations of a competing antibody (37M in the case of 37C, and 37C in the case of 37M) and incubated in wells of 96-well plates coated with a recombinant KIT polypeptide containing the D4/D5 region depicted in FIG. 2A. Reference antibody binding was then detected through the use of an HRP-conjugated, species-specific secondary antibody. Antibody 37M has a mouse constant region while antibody 37C has a human constant region. Therefore, when antibody 37M was used as a reference antibody and antibody 37C was used as a competing antibody, the reference antibody was detected using an anti-mouse IgG secondary antibody; and when antibody 37C was used as a reference antibody and antibody 37M was used as a competing antibody, the reference antibody was detected using an anti-human IgG secondary antibody. […]
(§2) Eight, 3-fold dilutions of the reference antibody samples were prepared beginning at 20 nM (2×), and combined 1:1 with a 20 nM solution of the competing antibody to yield final 1× values. […] The plates were processed similarly as described above for data collection on a plate reader. […]

Test [4] shares this target. Kind of test: competition solid phase ELISA on KIT D4/D5 antigen; 37C titrated with competitor 37M at 10 nM. How it is done: as §1, §2

Chain of full-length, wild-type human KIT receptor expressed on cells (P10721 other isoform, or with tags, fused parts or gaps limits assumed): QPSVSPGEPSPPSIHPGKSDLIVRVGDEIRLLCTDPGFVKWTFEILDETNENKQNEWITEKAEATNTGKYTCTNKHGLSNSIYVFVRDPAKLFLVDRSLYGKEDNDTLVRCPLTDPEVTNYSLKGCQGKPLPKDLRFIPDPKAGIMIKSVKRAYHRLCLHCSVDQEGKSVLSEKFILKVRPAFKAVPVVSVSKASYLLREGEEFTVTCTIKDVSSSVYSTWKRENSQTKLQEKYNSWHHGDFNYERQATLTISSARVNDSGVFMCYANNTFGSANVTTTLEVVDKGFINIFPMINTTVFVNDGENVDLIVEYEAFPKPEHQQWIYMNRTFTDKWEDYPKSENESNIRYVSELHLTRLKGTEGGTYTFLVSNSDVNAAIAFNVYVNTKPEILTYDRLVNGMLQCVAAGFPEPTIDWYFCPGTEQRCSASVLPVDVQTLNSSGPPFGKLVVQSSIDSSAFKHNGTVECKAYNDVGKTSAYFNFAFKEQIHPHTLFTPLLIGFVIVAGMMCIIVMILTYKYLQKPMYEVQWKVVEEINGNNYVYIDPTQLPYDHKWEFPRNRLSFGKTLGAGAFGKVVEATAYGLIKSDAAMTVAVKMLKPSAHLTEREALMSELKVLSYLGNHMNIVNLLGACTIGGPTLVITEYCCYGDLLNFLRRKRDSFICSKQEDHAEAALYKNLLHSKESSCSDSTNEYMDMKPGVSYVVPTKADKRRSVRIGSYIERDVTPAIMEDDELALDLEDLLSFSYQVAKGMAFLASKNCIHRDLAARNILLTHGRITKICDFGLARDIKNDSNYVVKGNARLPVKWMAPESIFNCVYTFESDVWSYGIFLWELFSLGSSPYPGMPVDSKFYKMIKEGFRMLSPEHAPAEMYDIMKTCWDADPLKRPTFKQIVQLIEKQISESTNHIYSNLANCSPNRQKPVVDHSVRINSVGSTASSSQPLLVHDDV

B1: antibody 37C (antibody, human IgG1, kappa, V domains shown)
VH: QVQLKQSGAELVRPGASVKLSCKASGYTFTDYYINWVKQRPGQGLEWIARIYPGSGNTYYNEKFKGKATLTAEKSSSTAYMQLSSLTSEDSAVYFCARGVYYFDYWGQGTTLTVSA
VL: DIVMTQSQKFMSTSVGDRVSVTCKASQNVRTNVAWYQQKPGQSPKALIYSASYRYSGVPDRFTGSGSGTDFTLTISNVQSEDLADYFCQQYNSYPRTFGGGTKLEIKR
notes: also called chimeric antibody 37C
Consider B1, for which, in test [1], the “50% inhibition concentration (IC50), cell-based phospho-KIT assay, unsorted CHO/KIT-WT cells (FIG. 8)” value was around 0.167 nM. Also, the “IC50, cell-based phospho-KIT assay, sorted (high KIT expression) CHO/KIT-WT cells (FIG. 11B)” value in test [1] was around 0.334 nM. In addition, the half-maximal effective concentration (EC50) in test [2] was around 0.196 nM; in test [3], 0.048 nM; in test [4], 1 nM.

B2: antibody 37M (antibody, V domains shown)
VH: QVQLKQSGAELVRPGASVKLSCKASGYTFTDYYINWVKQRPGQGLEWIARIYPGSGNTYYNEKFKGKATLTAEKSSSTAYMQLSSLTSEDSAVYFCARGVYYFDYWGQGTTLTVSS
VL: DIVMTQSQKFMSTSVGDRVSVTCKASQNVRTNVAWYQQKPGQSPKALIYSASYRYSGVPDRFTGSGSGTDFTLTISNVQSEDLADYFCQQYNSYPRTFGGGTKLEIKR
With B2, the “IC50, cell-based phospho-KIT assay, sorted (high KIT expression) CHO/KIT-WT cells (FIG. 11B)” value in test [1] is around 0.315 nM.
